Reference: US20260028422A1 (CONCEPT TO MEDICINE BIOTECH, published 2026)
Read-outs that look alike come from different tables or passages of the source.

T1: human MerTK expressed on cells (human, UniProt Q12866 21-999)
T1 construct: whole, on cells; also called CHO-K1-hMerTK; CHO-K1-MerTK
T1 sequence (looked up): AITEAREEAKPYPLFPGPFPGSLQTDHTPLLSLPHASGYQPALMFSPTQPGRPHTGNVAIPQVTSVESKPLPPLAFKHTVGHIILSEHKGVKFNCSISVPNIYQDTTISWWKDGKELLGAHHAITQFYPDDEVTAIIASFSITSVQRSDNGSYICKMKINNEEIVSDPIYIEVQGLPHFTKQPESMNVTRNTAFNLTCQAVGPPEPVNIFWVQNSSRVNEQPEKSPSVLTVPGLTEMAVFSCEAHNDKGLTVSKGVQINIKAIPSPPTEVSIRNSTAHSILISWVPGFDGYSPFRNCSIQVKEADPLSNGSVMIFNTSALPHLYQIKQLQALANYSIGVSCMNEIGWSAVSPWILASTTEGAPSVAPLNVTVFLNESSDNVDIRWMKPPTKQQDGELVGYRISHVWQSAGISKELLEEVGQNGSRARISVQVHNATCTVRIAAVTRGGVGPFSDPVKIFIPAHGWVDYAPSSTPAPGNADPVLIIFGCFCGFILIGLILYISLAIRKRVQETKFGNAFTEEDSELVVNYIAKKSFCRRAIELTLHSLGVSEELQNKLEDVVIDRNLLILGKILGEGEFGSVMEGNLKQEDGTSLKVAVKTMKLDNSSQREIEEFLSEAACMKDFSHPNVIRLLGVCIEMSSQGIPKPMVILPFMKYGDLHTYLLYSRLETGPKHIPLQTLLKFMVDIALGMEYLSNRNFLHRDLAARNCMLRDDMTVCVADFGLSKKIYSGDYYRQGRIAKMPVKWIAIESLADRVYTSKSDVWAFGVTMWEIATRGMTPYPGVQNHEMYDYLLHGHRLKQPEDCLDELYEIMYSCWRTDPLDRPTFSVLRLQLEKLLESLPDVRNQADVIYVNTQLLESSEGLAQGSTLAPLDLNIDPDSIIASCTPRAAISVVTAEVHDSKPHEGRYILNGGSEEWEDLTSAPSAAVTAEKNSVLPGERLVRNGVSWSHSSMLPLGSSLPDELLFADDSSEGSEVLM

T2: Human MerTK-mouse Fc fusion protein (human, UniProt Q12866 21-499, limits assumed)
T2 construct: also called hMerTK; Human MerTK-mouse Fe fusion protein
T2 sequence (looked up): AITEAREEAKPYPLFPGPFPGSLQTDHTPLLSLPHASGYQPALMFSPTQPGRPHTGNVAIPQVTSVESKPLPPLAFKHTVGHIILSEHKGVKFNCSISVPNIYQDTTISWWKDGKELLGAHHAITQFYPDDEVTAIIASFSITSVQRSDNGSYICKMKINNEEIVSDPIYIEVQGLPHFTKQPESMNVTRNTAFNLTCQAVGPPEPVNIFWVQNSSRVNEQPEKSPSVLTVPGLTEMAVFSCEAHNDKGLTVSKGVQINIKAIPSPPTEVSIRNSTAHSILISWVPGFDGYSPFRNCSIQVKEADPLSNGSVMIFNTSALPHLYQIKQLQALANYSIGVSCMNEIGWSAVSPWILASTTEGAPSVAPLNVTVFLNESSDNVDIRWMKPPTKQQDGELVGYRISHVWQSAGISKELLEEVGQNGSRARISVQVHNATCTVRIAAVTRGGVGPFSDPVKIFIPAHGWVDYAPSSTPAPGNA

T3: human MerTK-his protein (human, UniProt Q12866 21-505)
T3 construct: extracellular domain; also called hMerTK-His; human MerTK protein
T3 sequence (looked up): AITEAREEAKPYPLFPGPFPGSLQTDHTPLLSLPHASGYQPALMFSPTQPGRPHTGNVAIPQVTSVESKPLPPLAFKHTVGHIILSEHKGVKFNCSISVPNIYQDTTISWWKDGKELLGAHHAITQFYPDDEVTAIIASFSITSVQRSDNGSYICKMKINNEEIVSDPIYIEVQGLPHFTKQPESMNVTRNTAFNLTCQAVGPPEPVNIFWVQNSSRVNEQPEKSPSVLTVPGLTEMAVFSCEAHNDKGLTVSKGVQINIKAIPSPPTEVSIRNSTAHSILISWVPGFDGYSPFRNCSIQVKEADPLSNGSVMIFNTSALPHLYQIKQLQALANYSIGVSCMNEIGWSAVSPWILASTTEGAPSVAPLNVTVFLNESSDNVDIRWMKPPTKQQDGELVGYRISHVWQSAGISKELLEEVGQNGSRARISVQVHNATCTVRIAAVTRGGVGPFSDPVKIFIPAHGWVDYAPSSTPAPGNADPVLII


Legend:
[1] = target: T1, human MerTK expressed on cells; test: FACS on CHO-K1 cells overexpressing human MerTK, MFI (PE)
Method: To evaluate the binding property to the antigen expressed on the cells, the chimeric monoclonal antibodies were analyzed for their binding to human MerTK overexpressed on CHO-K1 cells by FACS. Briefly, human MerTK overexpressing CHO-K1 (CHO-K1-MerTK) cells were firstly incubated with 5-fold serially diluted mAbs starting at 20 nM at 4° C. for 1 hour. After washing with FACS buffer, the PE conjugated anti-human IgG-Fc secondary antibody was added to each well and incubated at 4° C., for 30 mins. The mean fluorescence intensity (MFI) of PE were evaluated by QuantAnalyzer 16.

[2] = target: T2, Human MerTK-mouse Fc fusion protein; test: FACS blocking: binding of human MerTK-mouse Fc to Jurkat cells overexpressing human Gas6, MFI (AF488)
Method: (§1) To evaluate the blocking effects of anti-hMerTK mAbs on hMerTK binding to its ligand hGas6, a receptor blocking assay was set-up. Briefly, Jurkat cells engineered to overexpress human Gas6 were added to the 96-well microplates at a density of 5×10⁴ cells per well. Human MerTK-mouse Fe fusion protein (50 μL/well, […]) and the MerTK chimeric antibodies with a 3-fold serial dilution starting from 120 nM at a volume of 50 μL were added to the 96-well plates and incubated at 4° C. for 30 mins. After washing with FACS buffer, the plates were incubated with diluted Alex Fluor 488 conjugated goat anti-mouse IgG antibody for 30 mins at 4′C. After washing, the plates were analyzed by QuantAnalyzer 16.

[3] = target: T2, Human MerTK-mouse Fc fusion protein; test: as above; remark: listed apart in the source
Method: as §1

human MerTK-his protein = target: T3, human MerTK-his protein; test: SPR Biacore T200, antibody captured on Protein A chip
Method: The binding affinity of the MerTK chimeric antibodies to human MerTK-his protein was tested with Biacroe™ T200 using a capture method. Briefly, the antibodies were captured with a Pro-A chip. […] The antigen was allowed to dissociate for 420-800 s. Data analysis was carried out using Biacore™ T200 evaluation software.

| Binder | EC50 [1] [pM] | Top [1] | IC50 [2] [pM] | IC50 [3] [pM] | Kd (human MerTK-his protein) [pM] | koff (human MerTK-his protein) [s⁻¹] | kon (human MerTK-his protein) [M⁻¹ s⁻¹] |
| --- | --- | --- | --- | --- | --- | --- | --- |
| h13B4.v16 benchmark antibody (antibody, V domains shown) VH: EVQLVESGEGLVQPGGSLRLSCAASGFSLSSYAMGWVRQAPGKGLEYVGIINSYGNTYYANWAKGRFTISRDNSKNTVYLQMGSLRAEDMAVYYCARDPGVSSNLWGRGTLVTVSS VL: DIQMTQSPSTLSASVGDRVTITCQASQNIYSGLAWYQQKPGKAPKLLIYGASKLASGVPSRFSGSGSGTEFTLTISSLQPDDFATYYCQATYYSSNSVAFGGGTKVEIK | 160 | 4950 MFI (PE) | 856 | 836 |  |  |  |
| 252H9D5 chimeric monoclonal antibody (antibody, V domains shown) VH: QVTLRESGPGILQPSQTLSLTCSFSGFSLNTFGMGVGWIRQSSGKGLKWLAHIWWDDDKFYNPALKSRLTISKDTSKNQVFLKIANVDTTDTATYYCARIEGGLPYYYDYWGQGTPLIVSS VL: DIVMTQSQKIMSTSVGDRISVTCKASQIVGTNVVWYQQKPGQSPKALIYSTSYRYSGVPDRFTGSRSGTDFTLTISNVQSEDLANYFCQQYNSYPFTFGSGTKLEIK |  |  | 824 |  | 9850 | 0.00287 | 292000 |
